The record followed here is patent US11499162B2, “Plants having increased tolerance to herbicides” (BASF SE, priority 2016, dated 2022).

The labels stand for the following.
B1: Q71NL92AD128A: mutated TriA variant of SEQ ID NO: 2 (protein)
chain: MQTLSIQHGTLVTMDQYRRVLGDSWVHVQDGRIVALGVHAESVPPPADRVIDARGKVVLPGFINAHTHVNNILLRGGPSHGRQLYDWLFNVAYPGQKAMRPEDVAVAVRLYCAEAVRSGITTINDNAASAIYPGNIEAAMAVYGEVGVRVVYARMFFDRMDGRIQGYVDALKARSPQVELCSIMEETAVAKDRITALSDQYHGTAGGRISVWPAPAITPAVTVEGMRWAQAFARDRAVMWTLHMAESDHDERLHWMSPAEYMECYGLLDERLQVAHCVYFDRKDVRLLHRHNVKVASQVVSNAYLGSGVAPVPEMVERGMAVGIGTDDGNCNDSVNMIGDMKFMAHIHRAVHRDADVLTPEKILEMATIDGARSLGMDHEIGSIETGKRADLILLDLRHPQTTPHHHLAATIVFQAYGNEVDTVLIDGNVVMENRRLSFLPPERELAFLEEAQSRATAILQRANMVANPAWRSL
modifications: Pseudomonas
B2: Q71NL88AL92AD128A: mutated TriA variant of SEQ ID NO: 2 (protein)
chain: MQTLSIQHGTLVTMDQYRRVLGDSWVHVQDGRIVALGVHAESVPPPADRVIDARGKVVLPGFINAHTHVNNILLRGGPSHGRQLYDWAFNVAYPGQKAMRPEDVAVAVRLYCAEAVRSGITTINDNAASAIYPGNIEAAMAVYGEVGVRVVYARMFFDRMDGRIQGYVDALKARSPQVELCSIMEETAVAKDRITALSDQYHGTAGGRISVWPAPAITPAVTVEGMRWAQAFARDRAVMWTLHMAESDHDERLHWMSPAEYMECYGLLDERLQVAHCVYFDRKDVRLLHRHNVKVASQVVSNAYLGSGVAPVPEMVERGMAVGIGTDDGNCNDSVNMIGDMKFMAHIHRAVHRDADVLTPEKILEMATIDGARSLGMDHEIGSIETGKRADLILLDLRHPQTTPHHHLAATIVFQAYGNEVDTVLIDGNVVMENRRLSFLPPERELAFLEEAQSRATAILQRANMVANPAWRSL
modifications: Pseudomonas
B3: Q71G: mutated TriA variant of SEQ ID NO: 2 (protein)
chain: MQTLSIQHGTLVTMDQYRRVLGDSWVHVQDGRIVALGVHAESVPPPADRVIDARGKVVLPGFINAHTHVNGILLRGGPSHGRQLYDWLFNVLYPGQKAMRPEDVAVAVRLYCAEAVRSGITTINDNADSAIYPGNIEAAMAVYGEVGVRVVYARMFFDRMDGRIQGYVDALKARSPQVELCSIMEETAVAKDRITALSDQYHGTAGGRISVWPAPAITPAVTVEGMRWAQAFARDRAVMWTLHMAESDHDERLHWMSPAEYMECYGLLDERLQVAHCVYFDRKDVRLLHRHNVKVASQVVSNAYLGSGVAPVPEMVERGMAVGIGTDDGNCNDSVNMIGDMKFMAHIHRAVHRDADVLTPEKILEMATIDGARSLGMDHEIGSIETGKRADLILLDLRHPQTTPHHHLAATIVFQAYGNEVDTVLIDGNVVMENRRLSFLPPERELAFLEEAQSRATAILQRANMVANPAWRSL
modifications: Pseudomonas
B4: Q71NL88AL92AY93FF157L: mutated TriA variant of SEQ ID NO: 2 (protein)
chain: MQTLSIQHGTLVTMDQYRRVLGDSWVHVQDGRIVALGVHAESVPPPADRVIDARGKVVLPGFINAHTHVNNILLRGGPSHGRQLYDWAFNVAFPGQKAMRPEDVAVAVRLYCAEAVRSGITTINDNADSAIYPGNIEAAMAVYGEVGVRVVYARMFLDRMDGRIQGYVDALKARSPQVELCSIMEETAVAKDRITALSDQYHGTAGGRISVWPAPAITPAVTVEGMRWAQAFARDRAVMWTLHMAESDHDERLHWMSPAEYMECYGLLDERLQVAHCVYFDRKDVRLLHRHNVKVASQVVSNAYLGSGVAPVPEMVERGMAVGIGTDDGNCNDSVNMIGDMKFMAHIHRAVHRDADVLTPEKILEMATIDGARSLGMDHEIGSIETGKRADLILLDLRHPQTTPHHHLAATIVFQAYGNEVDTVLIDGNVVMENRRLSFLPPERELAFLEEAQSRATAILQRANMVANPAWRSL
modifications: Pseudomonas
B5: Q71NL88AL92AY93LI217A: mutated TriA variant of SEQ ID NO: 2 (protein)
chain: MQTLSIQHGTLVTMDQYRRVLGDSWVHVQDGRIVALGVHAESVPPPADRVIDARGKVVLPGFINAHTHVNNILLRGGPSHGRQLYDWAFNVALPGQKAMRPEDVAVAVRLYCAEAVRSGITTINDNADSAIYPGNIEAAMAVYGEVGVRVVYARMFFDRMDGRIQGYVDALKARSPQVELCSIMEETAVAKDRITALSDQYHGTAGGRISVWPAPAATPAVTVEGMRWAQAFARDRAVMWTLHMAESDHDERLHWMSPAEYMECYGLLDERLQVAHCVYFDRKDVRLLHRHNVKVASQVVSNAYLGSGVAPVPEMVERGMAVGIGTDDGNCNDSVNMIGDMKFMAHIHRAVHRDADVLTPEKILEMATIDGARSLGMDHEIGSIETGKRADLILLDLRHPQTTPHHHLAATIVFQAYGNEVDTVLIDGNVVMENRRLSFLPPERELAFLEEAQSRATAILQRANMVANPAWRSL
modifications: Pseudomonas
B6: Q71NL88AL92AD128G: mutated TriA variant of SEQ ID NO: 2 (protein)
chain: MQTLSIQHGTLVTMDQYRRVLGDSWVHVQDGRIVALGVHAESVPPPADRVIDARGKVVLPGFINAHTHVNNILLRGGPSHGRQLYDWAFNVAYPGQKAMRPEDVAVAVRLYCAEAVRSGITTINDNAGSAIYPGNIEAAMAVYGEVGVRVVYARMFFDRMDGRIQGYVDALKARSPQVELCSIMEETAVAKDRITALSDQYHGTAGGRISVWPAPAITPAVTVEGMRWAQAFARDRAVMWTLHMAESDHDERLHWMSPAEYMECYGLLDERLQVAHCVYFDRKDVRLLHRHNVKVASQVVSNAYLGSGVAPVPEMVERGMAVGIGTDDGNCNDSVNMIGDMKFMAHIHRAVHRDADVLTPEKILEMATIDGARSLGMDHEIGSIETGKRADLILLDLRHPQTTPHHHLAATIVFQAYGNEVDTVLIDGNVVMENRRLSFLPPERELAFLEEAQSRATAILQRANMVANPAWRSL
modifications: Pseudomonas
B7: Q71NL88AL92AY93L: mutated TriA variant of SEQ ID NO: 2 (protein)
chain: MQTLSIQHGTLVTMDQYRRVLGDSWVHVQDGRIVALGVHAESVPPPADRVIDARGKVVLPGFINAHTHVNNILLRGGPSHGRQLYDWAFNVALPGQKAMRPEDVAVAVRLYCAEAVRSGITTINDNADSAIYPGNIEAAMAVYGEVGVRVVYARMFFDRMDGRIQGYVDALKARSPQVELCSIMEETAVAKDRITALSDQYHGTAGGRISVWPAPAITPAVTVEGMRWAQAFARDRAVMWTLHMAESDHDERLHWMSPAEYMECYGLLDERLQVAHCVYFDRKDVRLLHRHNVKVASQVVSNAYLGSGVAPVPEMVERGMAVGIGTDDGNCNDSVNMIGDMKFMAHIHRAVHRDADVLTPEKILEMATIDGARSLGMDHEIGSIETGKRADLILLDLRHPQTTPHHHLAATIVFQAYGNEVDTVLIDGNVVMENRRLSFLPPERELAFLEEAQSRATAILQRANMVANPAWRSL
modifications: Pseudomonas
B8: Q71NL88AL92AY93F: mutated TriA variant of SEQ ID NO: 2 (protein)
chain: MQTLSIQHGTLVTMDQYRRVLGDSWVHVQDGRIVALGVHAESVPPPADRVIDARGKVVLPGFINAHTHVNNILLRGGPSHGRQLYDWAFNVAFPGQKAMRPEDVAVAVRLYCAEAVRSGITTINDNADSAIYPGNIEAAMAVYGEVGVRVVYARMFFDRMDGRIQGYVDALKARSPQVELCSIMEETAVAKDRITALSDQYHGTAGGRISVWPAPAITPAVTVEGMRWAQAFARDRAVMWTLHMAESDHDERLHWMSPAEYMECYGLLDERLQVAHCVYFDRKDVRLLHRHNVKVASQVVSNAYLGSGVAPVPEMVERGMAVGIGTDDGNCNDSVNMIGDMKFMAHIHRAVHRDADVLTPEKILEMATIDGARSLGMDHEIGSIETGKRADLILLDLRHPQTTPHHHLAATIVFQAYGNEVDTVLIDGNVVMENRRLSFLPPERELAFLEEAQSRATAILQRANMVANPAWRSL
modifications: Pseudomonas
B9: Q71NL92AY93FD128A: mutated TriA variant of SEQ ID NO: 2 (protein)
chain: MQTLSIQHGTLVTMDQYRRVLGDSWVHVQDGRIVALGVHAESVPPPADRVIDARGKVVLPGFINAHTHVNNILLRGGPSHGRQLYDWLFNVAFPGQKAMRPEDVAVAVRLYCAEAVRSGITTINDNAASAIYPGNIEAAMAVYGEVGVRVVYARMFFDRMDGRIQGYVDALKARSPQVELCSIMEETAVAKDRITALSDQYHGTAGGRISVWPAPAITPAVTVEGMRWAQAFARDRAVMWTLHMAESDHDERLHWMSPAEYMECYGLLDERLQVAHCVYFDRKDVRLLHRHNVKVASQVVSNAYLGSGVAPVPEMVERGMAVGIGTDDGNCNDSVNMIGDMKFMAHIHRAVHRDADVLTPEKILEMATIDGARSLGMDHEIGSIETGKRADLILLDLRHPQTTPHHHLAATIVFQAYGNEVDTVLIDGNVVMENRRLSFLPPERELAFLEEAQSRATAILQRANMVANPAWRSL
modifications: Pseudomonas

The format of this series is biochemical. To be noted: pH 7.2. The procedure, abridged: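 Expression: BL21(DE3) Gold, pET24d N-His, pGro7, 0.1 mM IPTG, 25° C, 20 h. Reaction: 25 mM Na phosphate pH 7.2, substrate 1 nM to 10 nM, 30° C. Analysis: UPLC-HR-MS; % degradation vs empty vector.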
Turning to B1, the “Degradation in % of 6-cyclopentyl-N4-(2,3,4,5,6-pentafluorophenyl)-1,3,5-triazine-2,4-diamine” value was 98% and the “Degradation in % of Melamine” value was 0%.
Consider B2, for which the “Degradation in % of 6-cyclopentyl-N4-(2,3,4,5,6-pentafluorophenyl)-1,3,5-triazine-2,4-diamine” value amounted to 4% and the “Degradation in % of Melamine” value is listed as 0%.
As for B3, the “Degradation in % of 6-cyclopentyl-N4-(2,3,4,5,6-pentafluorophenyl)-1,3,5-triazine-2,4-diamine” value came out at 0% and the “Degradation in % of Melamine” value is listed as 19%.
Turning to B4, the “Degradation in % of 6-cyclopentyl-N4-(2,3,4,5,6-pentafluorophenyl)-1,3,5-triazine-2,4-diamine” value turned out to be 91% and the “Degradation in % of Melamine” value was determined as 1%.
The like results for B5 were, in that order, 99% and 12%.
The like results for B6 were, in that order, 31% and 0%.
As for B7, the “Degradation in % of 6-cyclopentyl-N4-(2,3,4,5,6-pentafluorophenyl)-1,3,5-triazine-2,4-diamine” value is reported as 99% and the “Degradation in % of Melamine” value was determined as 4%.
The like results for B8 were, in that order, 92% and 5%.
The matching figures for B9: 98% and 0%.
